For orientation: Kd means the free concentration of one partner at which half of the binding sites on the other are occupied at equilibrium, for simple one-to-one binding.

We go through four molecules from paper PMC8809517, “Cofactor-independent RNA editing by a synthetic S-type PPR protein”.

Holding throughout (assay): high-throughput RNA pulldown from lysate on Ni-NTA beads; HRP: 50 mM Tris pH 8, 150 mM NaCl, 1 mM beta-mercaptoethanol, 50 ug/ml BSA, 3 ug/ml yeast RNA, 0.5% heparin; ITC and FP: Tris pH 8, 200 mM KCl, 5% glycerol; MST: 50 mM Tris pH 8, 200 mM NaCl, 1 mM DTT, BSA, heparin, 0.05% Tween 20
What all share (conditions): tags: N-terminal His-eGFP

Data set [1] has as its target T1, GFP-9S library array, motif 4 ND N98D;D124L (synthetic construct, N98D;D124L).
T1 chain: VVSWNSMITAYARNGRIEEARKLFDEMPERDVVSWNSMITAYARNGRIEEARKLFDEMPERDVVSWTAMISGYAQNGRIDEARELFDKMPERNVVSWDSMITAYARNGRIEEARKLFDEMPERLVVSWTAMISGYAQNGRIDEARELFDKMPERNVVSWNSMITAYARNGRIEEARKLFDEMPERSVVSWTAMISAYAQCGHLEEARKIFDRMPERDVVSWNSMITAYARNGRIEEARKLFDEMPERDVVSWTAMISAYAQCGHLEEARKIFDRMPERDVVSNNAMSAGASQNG

Data set [2] has as its target T2, GFP-9S library array, motif 4 ND N98C;D124T (synthetic construct, N98C;D124T).
T2 chain: T1 chain with D98C, L124T

Data set [3] has as its target T3, GFP-9S library array, motif 4 ND N98V;D124T (synthetic construct, N98V;D124T).
T3 chain: T1 chain with D98V, L124T

Data set [4] deals with T4, GFP-9S library array, motif 4 ND N98W;D124T (synthetic construct, N98W;D124T).
T4 chain: T1 chain with D98W, L124T

Data set [5] addresses T5, GFP-9S library array, motif 4 ND D124G (synthetic construct, D124G).
T5 chain: T1 chain with D98N, L124G

Positions count from the first letter of the chain named.

B1: Cy5-rpoA-G (ssRNA)
RNA: AUUAGACGUGA
B1: the Kd in data set [1] (label: 5' Cy5) is 52.3 nM; in data set [2] (label: 5' Cy5), 85.3 nM; in data set [3] (label: 5' Cy5), 86.7 nM; in data set [4] (label: 5' Cy5), 50.4 nM; in data set [5] (label: 5' Cy5), 445 nM.

B2: Cy5-rpoA (ssRNA)
RNA: AUUACACGUGA
For the molecule B2, the Kd in data set [1] (label: 5' Cy5) is 133 nM; in data set [2] (label: 5' Cy5), 245 nM; in data set [3] (label: 5' Cy5), 89.3 nM; in data set [4] (label: 5' Cy5), 38.5 nM; in data set [5] (label: 5' Cy5), 30.7 nM.

B3: IR-rpoA-U (ssRNA)
RNA: AUUAUACGUGA
As for B3, the Kd in data set [1] (label: 5' IRDye 800CW) stood at 408 nM; in data set [2] (label: 5' IRDye 800CW), 155 nM; in data set [3] (label: 5' IRDye 800CW) it was 29.3 nM; in data set [4] (label: 5' IRDye 800CW) it was 59.1 nM; in data set [5] (label: 5' IRDye 800CW), 30.7 nM.

B4: IR-rpoA-A (ssRNA)
RNA: AUUAAACGUGA
For B4, the Kd was determined as 90.5 nM in data set [1] (label: 5' IRDye 800CW); 150 nM in data set [2] (label: 5' IRDye 800CW); 36.3 nM in data set [3] (label: 5' IRDye 800CW); 76.1 nM in data set [4] (label: 5' IRDye 800CW); 136 nM in data set [5] (label: 5' IRDye 800CW).
